The values below come from doi:10.1101/2025.07.31.667833.

This assay deals with Spef1 K204Q/K206Q/R207Q/R215Q/R218Q mutant (full-length) (mouse) (UniProt Q99JL1). Briefly: SEC-MALS. A general note: SEC sorts molecules by how far they enter the pores of the column.

Broadly, the stoichiometry N is the number of molecules, sites or subunits per partner or assembly. “Spef1 K204Q/K206Q/R207Q/R215Q/R218Q mutant (full-length) (from UniProt Q99JL1 1-234) (natural protein)” registered a stoichiometry N of 2.
